Test results: publication PMC8413711 (2021)
Positions count from the first letter of the chain named.

B1: BD-604 (antibody, V domains shown)
VH: EVQLVESGGGLIQPGGSLRLSCAASGIIVSSNYMTWVRQAPGKGLEWVSVIYSGGSTFYADSVKGRFTISRDNSKNTLYLQMSSLRAEDTAVYYCARDLGPYGMDVWGQGTTVTVSS
VL: DIQLTQSPSFLSASVGDRVTITCRASQGISSDLAWYQQKPGKAPNLLIYAASTLQSGVPSRFSGSGSGTEFTLTISSLQPEDFATYYCQQLNSDLYTFGQGTKLEIK
B2: BD-508 (antibody, V domains shown)
VH: B1 VH with I12V, I27F, D72H, Y79F, S83N, L99A, G100Q, P101N
VL: DIQMTQSPSSLSASVGDRVTITCRASQSISSYLNWYQQKPGKAPKLLIFAASSLQTGAPSRFSGSGSGTDFTLTISSLQPEDFATYYCQQSYSTPPYTFGQGTKLEIK
B3: BD-623 (antibody, V domains shown)
VH: EVQLVESGGGLVQPGGSLRLSCAASGFTVSSNYMSWVRQAPGKGLEWVSIIYSGGSTYYADSVKGRFTISRDNSKNTLYLQMNSLRAEDTAVYYCARDYAGRVWGQGTLVTVSS
VL: QSALTQPASVSGSPGQSITISCTGTSSDVGSYNLVSWYQQRPGKAPKLILYEVTKRPSGVSNRFSGSKSGNTASLAISGLQAEDEADYYCCSYAGSSTWVFGGGTKLTVL
B4: BD-515 (antibody, V domains shown)
VH: EVQLVESGGGLVQPGGSLRLSCAASEFIVSRNYMSWVRQAPGKGLEWVSVIYSGGSTFYADSVKGRFTISRDNSKNTLYLQMNSLRAEDTGVYYCARDRGLVSDYWGQGTLVTVSS
VL: DIQMTQSPSSLSASVGDRVTITCQASQDINKYLNWYQQKPGKAPKLLIFDASHLETGVPSRFSASGSGTDFTFTISSLQPEDIATYYCHQYDNLPRTFGQGTRLEIK
B5: BD-503 (antibody, V domains shown)
VH: EVQLVESGGGLIQPGGSLRLSCAASGLIVSSNYMSWVRQAPGKGLEWVSVLYAGGSTDYAGSVKGRFTISRDNSKNTLYLQMNSLRAEDTAVYYCARDAAVYGIDVWGQGTTVTVSS
VL: not shown

Experiments:
[1] = molecular target: T1, SARS-CoV-2 RBD (SARS-CoV-2, UniProt P0DTC2 319-541); experiment: SPR
[2] = molecular target: T1, SARS-CoV-2 RBD; experiment: SPR; remark: listed apart in the source

Binder | Kd [1] | koff [2]
B1 | 0.012 nM | 
B2 | 1.3 nM | 0.000514 s⁻¹
B3 | 0.12 nM | 
B4 | 0.561 nM | 0.000389 s⁻¹
B5 | 0.204 nM | 
